# B1: Hairpin Ribozyme (parent)
# chain: GUCCUCUUUCACGUGCGCGUGAAAGAGAGAAGUGAACCAGAGAAACACACGUUGUGGUAUAUUACCUGGUA
# Variants of: B1
# Test: self-cleavage, relative activity (ratio to wild type); higher = more cleavage; co-transcriptional
row,Variant,self-cleavage
1,G21C C46A,0.0884
2,U20G C50G,0.225
3,U62C A71U,0.277
4,G17C A41G,0.591
5,G27A A61C,0.107
6,U9C U53G,1.13
7,C16A A36U,0.554
8,U33C A44U,0.195
9,G34C C65U,1.04
10,A28U,0.656
11,G25U A31C,0.176
12,G42C U62C,0.221
13,A43C A59U,0.101
14,C3G A36U,0.174
15,G27U C37A,0.108
16,A22G U55C,0.294
17,G15U C48A,0.226
18,A45C C48A,0.0612
19,G1A G15U,0.0969
20,C10A U33A,0.153
21,G17U U67G,0.278
22,C6U A45G,0.135
23,A35C G51C,0.725
24,U20G A24U,0.731

row,Variant,self-cleavage
1,A31C A71C,0.202
2,G42C C66U,0.13
3,C3G U33C,0.143
4,G1U A45U,0.228
5,A28C A59G,0.117
6,C18G A64C,0.158
7,A24G A43U,0.104
8,A24G U60A,0.861
9,C6G U67A,0.15
10,G21A C38A,0.208
11,U5G U60A,0.161
12,C6A G29U,0.124
13,C4A C37A,0.159
14,U2C U8G,0.118
15,C18G G54U,0.449
16,U7G A45C,0.0973
17,A44U C48A,0.124
18,A59U U67G,0.143
19,U9A C48U,0.134
20,U58A A71C,1.19
21,G1U U9A,0.115
22,U58G A71C,1.07
23,G29U A39U,0.0632
24,G17C A22C,0.75

row,Variant,self-cleavage
1,G13C A61G,0.164
2,G40A A41G,0.263
3,C16G C65G,0.163
4,A22C A30C,0.16
5,U7A G68U,0.238
6,G17C U53C,0.826
7,A47G U52C,0.124
8,U60G G69C,0.317
9,G21A A26U,0.525
10,A26U A30C,0.205
11,C38G A47G,0.116
12,U14A A30U,0.156
13,U2A G54A,0.143
14,U9A U58C,0.72
15,A43U G56C,0.0883
16,G32A U67G,0.0549
17,G32A U60A,0.191
18,G27U G40U,0.0783
19,G1C A49G,0.315
20,C48U U60G,0.125
21,U53G U58C,0.987
22,G15U A61C,0.261
23,C6U U52G,0.797
24,G13C A30U,0.14

row,Variant,self-cleavage
1,U8A U67A,0.196
2,A45U U62G,0.178
3,A24G A41U,1.05
4,G40A C48U,0.136
5,U7A A45G,0.204
6,A47U U60G,0.0964
7,C6U C48G,0.116
8,A28U A39C,0.337
9,U8C A36C,0.671
10,G21U A49G,0.408
11,A44U U63A,0.141
12,C46A U58A,0.198
13,A24G A31G,0.662
14,U20A A71G,0.89
15,G1A A31C,0.132
16,A59U G69A,0.182
17,G1A C10G,0.207
18,C3U G54A,0.251
19,G21A A36C,0.605
20,U9G U52A,0.705
21,A36C U58G,0.595
22,G42A G68U,0.144
23,G13A G19U,0.825
24,U20C G69A,0.435

row,Variant,self-cleavage
1,U5G G42U,0.198
2,A44C C48A,0.161
3,A23U A36C,0.596
4,A26C U63A,0.175
5,G25C A26U,0.248
6,U52A C66A,0.398
7,G32C U52G,0.125
8,U20C C46G,0.117
9,U2G C16A,0.398
10,A26U A64U,0.175
11,U9A A11G,0.473
12,A11C C50G,0.321
13,G25U U62A,0.114
14,U20G G40C,0.188
15,U8G G19U,0.332
16,U14G U33A,0.116
17,C18G A71U,0.698
18,U7A U52A,0.992
19,A31C C46G,0.0917
20,A28C A45G,0.201
21,C37A A64U,0.392
22,G25A U70A,0.519
23,C10U U55A,0.213
24,U2A G25A,0.259

row,Variant,self-cleavage
1,U2C A64G,0.123
2,A49C G57C,0.121
3,A11U A30G,0.0913
4,A35C C46A,0.0748
5,C46G C50U,0.185
6,A30U G57C,0.0918
7,G1C U52A,0.0569
8,C50A U67C,0.0958
9,A24C A41C,1.01
10,C10U A36C,0.662
11,G54U U63C,0.214
12,A36G A49G,0.339
13,C50G A61U,0.248
14,C18A U62A,0.204
15,U20G U33A,0.158
16,G25U A59G,0.108
17,C4U U52C,0.481
18,A35G G68C,0.236
19,U9C A36U,0.444
20,U53C U62C,0.347
21,G68A U70C,0.336
22,A30C A31U,0.129
23,U7A A41U,1.28
24,U5C G27C,0.15

row,Variant,self-cleavage
1,U33A U67C,0.104
2,U9A A71C,1.01
3,A31C U55G,0.1
4,C16A U33G,0.317
5,G19A U53C,0.854
6,U53G A61U,0.186
7,U9G A28G,1.01
8,G32U C66G,0.19
9,G25A G54C,0.219
10,G34A G69U,0.208
11,C37G A41C,0.282
12,U8G G13C,0.519
13,C38G A43C,0.198
14,C16G A64G,0.511
15,C3U C50G,0.174
16,A22C U33C,0.155
17,G15U C50A,0.274
18,A44C G57U,0.0814
19,A35C A43C,0.0885
20,A23G U53G,0.706
21,U2G U67A,0.139
22,A22G C48U,0.149
23,G40C C50G,0.12
24,U58A A59G,0.122

row,Variant,self-cleavage
1,C10A G29A,0.111
2,U14C A61C,0.162
3,A23G C38G,0.186
4,A24G A28G,0.882
5,U14C U62C,0.0439
6,A23G G54A,0.489
7,U14A G17U,0.96
8,G34A C46U,0.135
9,A11U U52A,0.85
10,C3A U60G,0.338
11,A11C U53C,0.681
12,C12A A28U,0.34
13,G1U G13A,0.0563
14,C3A C16G,0.587
15,G17A G40A,0.185
16,G32U C37U,0.161
17,G29C C50U,0.144
18,U5A A24C,0.314
19,A28U C65G,0.151
20,C6A A71C,1.14
21,U7C G56U,0.188
22,U7G U52G,0.779
23,C6U U70A,0.699
24,U9G G15A,0.646

row,Variant,self-cleavage
1,C3U U52C,0.611
2,A28C A61U,0.272
3,A24C G34A,0.895
4,U33C A41U,0.159
5,G27A U53A,0.371
6,G13U A22C,0.533
7,G1A U14C,0.166
8,A22G A23C,0.915
9,G25U G56U,0.223
10,G15C G25U,0.637
11,A47C U67A,0.128
12,C6A U70G,0.325
13,U20G U33G,0.11
14,U52C U58C,0.755
15,C3A C38G,0.156
16,G34A C50U,0.653
17,G1A G27U,0.153
18,A24G G34A,0.862
19,G25A U62G,0.125
20,U7G U62C,0.0811
21,A47C G56U,0.149
22,U14G A43U,0.186
23,G51U U62G,0.129
24,C3G C16U,0.305

row,Variant,self-cleavage
1,A11G U14A,0.916
2,A43G C66G,0.0518
3,A28C U53G,0.213
4,U7G C12U,0.753
5,A11U C38U,0.47
6,G13C G27C,0.161
7,U9G A35C,0.637
8,C18G U52C,1.04
9,A64G G68U,0.19
10,G34C G54U,1.19
11,G40C C46U,0.116
12,A43U C66A,0.0293
13,C16A A22C,0.713
14,A39C A43U,0.123
15,C46G A47C,0.125
16,U33C C46A,0.0278
17,A26G U58C,1.02
18,U58G A59G,0.143
19,C3U U55C,0.153
20,U9G A64C,0.164
21,A49U U70G,0.39
22,G1C G27C,0.201
23,G25C C48U,0.187
24,U20C A31G,0.469

row,Variant,self-cleavage
1,G29C U63G,0.0807
2,C4G U7A,0.143
3,U9C U58A,0.559
4,U14G A30U,0.175
5,A36C A71C,0.975
6,C6U A35U,0.765
7,C16G A36U,0.553
8,G25U U55C,0.205
9,U55C G56C,0.114
10,G1U C48G,0.0484
11,U5A G13U,0.302
12,A31G A59C,0.173
13,A39C C48G,0.256
14,A49C U60C,0.165
15,C10A A44G,0.178
16,A35U A36C,0.264
17,U8A C48G,0.107
18,G42C G57U,0.146
19,G17A G51C,0.656
20,U7A A64C,0.194
21,G17A C48G,0.102
22,G27A U63C,0.236
23,G15C C38G,0.127
24,U33C C65U,0.2

row,Variant,self-cleavage
1,G34C U63A,0.293
2,G32A C65A,0.0853
3,G17U G25U,0.637
4,G42U G68A,0.129
5,A26U C46U,0.11
6,A26C G42C,0.357
7,G17A G57C,0.146
8,G13A U55C,0.214
9,A59C A61U,0.284
10,A31G G34A,1.12
11,G34U A35G,1.47
12,U9C A39G,0.283
13,G21A A49C,0.233
14,U5C A47U,0.166
15,U5C G19A,0.422
16,C3A C48A,0.152
17,G1U U70G,0.0694
18,A43C U55G,0.148
19,A23G A28U,0.417
20,C38G G51A,0.271
21,C16A G17U,0.944
22,A30U G68C,0.118
23,A28U C65U,0.153
24,C18A U55C,0.3

row,Variant,self-cleavage
1,G21C A28U,0.31
2,U2C U53C,0.0859
3,U8G C10A,0.725
4,C3U C66A,0.0858
5,C18A C37U,0.64
6,G29C A47G,0.0858
7,C10A G27C,0.159
8,C4U G27U,0.118
9,G29C U62A,0.13
10,C12U A47U,0.194
11,G29C U58C,0.159
12,C18G U58C,0.802
13,A64C,0.174
14,U2G G69C,0.0755
15,G32C A71C,0.215
16,C46A G51U,0.146
17,C38G C66A,0.151
18,C48A G69C,0.135
19,C12U A39U,0.45
20,C3A A43G,0.143
21,A24C A45U,0.0791
22,A11U U33A,0.0768
23,A28C G32U,0.0817
24,A11U A59U,0.256

row,Variant,self-cleavage
1,G19U A35C,0.809
2,G1C A44U,0.295
3,G25U G56A,0.21
4,U7C G51C,0.489
5,A23U G40C,0.1
6,G51A A61U,0.192
7,A49U U60C,0.331
8,C37A A71G,0.323
9,G25A A36G,0.605
10,U53G A64C,0.0581
11,C12A A22G,0.692
12,U7G U20C,0.798
13,U7G U14G,0.729
14,U2G A36G,0.274
15,G51A U58A,0.674
16,U8C U53A,0.674
17,C6U G13A,0.712
18,G32A A44U,0.152
19,G40A C66A,0.322
20,C6A C38U,0.354
21,A30U G40C,0.13
22,A23C G57C,0.192
